These results are taken from patent US20090291088A1 (Biogen, published 2009).

For assay [1], the target named is T1, human INSR(28-956)-His10 (human, UniProt P06213 28-956).
T1 construct: range 28-956; Bought (R&D Systems 1544-IR); also called rh-INSR; soluble insulin receptor
Briefly: ELISA on coated rh-INSR. The protocol:
(§1) ELISA assays were performed to determine specific binding of the Fab fragment antibodies to soluble IGF-1R over the insulin receptor. […] Color development was stopped by addition of 4NH₂SO₄ and optical density is measured at 450 nm using a Molecular Devices plate reader and binding curves are generated.
In general terms: In an ELISA, binding on a coated surface is turned into a signal by an enzyme label.

For assay [2], the target named is T2, human IGF-1R(1-902)-His10 (human, UniProt P08069 31-932).
T2 construct: Cy5-labelled in tr-FRET; also called hIGF-1R-His10; IGF-1R-His
In words: ELISA, plate coated with rh-IGF-1R, bound Fab detected with anti-human kappa-HRP. The protocol: as §1

Assay [3] concerns the target T1, human INSR(28-956)-His10. Briefly: ELISA, plate coated with rh-INSR. Here is the method:
as §1

Assay [4] concerns the target T3, human IGF-1R expressed on cells (human, UniProt P08069 31-1367).
T3 construct: On MCF-7 tumor cells or on 3T3/CHO transfectants; precursor is processed into alpha and beta subunits; Signal peptide 1-30 left out as stated; also called wild type IGF-1R; IGF-1R 3T3
In words: flow cytometry, MCF-7 cells. The protocol:
The ability of Fabs to bind to the wild type IGF-1R was determined by flowcytometry using MCF-7 tumor cell line.
MCF-7 cells (Human Breast Adenocarcinoma from NCI) were split 24 hours prior to the setup of the assay to obtain 70% confluent monolayer. Routinely, MCF-7 cell line was maintained within 20 passages. Cells were lifted with cell dissociation buffer (Gibco catalog #13151-014), counted, washed and adjusted to 1×10⁶ cells/ml and one ml of cells were then added to each tube (12×75 mm tube Falcon catalog# 352054). Cells were pelleted and supernatant removed by centrifugation at 1200 rpm for 5 min and 100 μl of diluted antibodies were then added to the cell pellet. Purified Fabs were tested at a starting concentration of either 210 or 60 μg/ml with 1:3 dilutions in FACS buffer, down to 0.001 μg/ml. FACS buffer used throughout the assay was PBS (without Ca++/Mg++) containing 1% BSA (Sigma catalog# A-7906; Sigma-Aldrich Corp. (St. Louis, Mo., USA)) and 0.1% Sodium Azide (Sigma catalog #S2002). […] Samples were allowed to incubate on ice for 1 hour and 15 minutes then were washed with 2 ml FACS buffer and centrifuged at 1200 rpm for 5 minutes at 4° C. The supernatant was aspirated and 100 μl of the secondary detection antibody was added to each corresponding tube in FACS buffer. Samples were then incubated for 30 minutes on ice, in the dark. Cells were washed as described above, then, re-suspended in […] FACS buffer per tube/sample.
Cells were stained for live cell determination with Propidium Iodide staining solution (PI for dead cell exclusion; BD Pharmingen catalog# 51-66211E or 556463; use at 1:500 final in FACS buffer). Samples were run on the FACSCalibur instrument (Becton Dickinson) with 10,000 live events collected per sample.
Background: A flow cytometer gives signals particle by particle.

Assay [5] has as its target T4, murine IGF-1R expressed on cells (mouse, UniProt Q60751 31-1373).
T4 construct: whole, on cells; also called mouse IGF-1R
Briefly: binding to CHO transfectants.

Assay [6] deals with T5, human IGF-1R(1-903)-Fc (human, UniProt P08069 31-933).
T5 construct: Made by Biogen Idec; Multimerises through IGF-1R and Fc; also called hIGF-1R-Fc; IGF-1R-Fc; not shown: C-terminal human IgG1-Fc tag
In words: ELISA on hIGF-1R-Fc, competitor biotinylated M13-C06.

For assay [7], the target named is T6, Rhesus IGF-1R expressed on CHO cells (rhesus monkey, UniProt I2CWY3 31-1367).
T6 construct: whole, on cells; also called Rhesus IGF-1R/CHO
T6 sequence (I2CWY3 entry or part of it): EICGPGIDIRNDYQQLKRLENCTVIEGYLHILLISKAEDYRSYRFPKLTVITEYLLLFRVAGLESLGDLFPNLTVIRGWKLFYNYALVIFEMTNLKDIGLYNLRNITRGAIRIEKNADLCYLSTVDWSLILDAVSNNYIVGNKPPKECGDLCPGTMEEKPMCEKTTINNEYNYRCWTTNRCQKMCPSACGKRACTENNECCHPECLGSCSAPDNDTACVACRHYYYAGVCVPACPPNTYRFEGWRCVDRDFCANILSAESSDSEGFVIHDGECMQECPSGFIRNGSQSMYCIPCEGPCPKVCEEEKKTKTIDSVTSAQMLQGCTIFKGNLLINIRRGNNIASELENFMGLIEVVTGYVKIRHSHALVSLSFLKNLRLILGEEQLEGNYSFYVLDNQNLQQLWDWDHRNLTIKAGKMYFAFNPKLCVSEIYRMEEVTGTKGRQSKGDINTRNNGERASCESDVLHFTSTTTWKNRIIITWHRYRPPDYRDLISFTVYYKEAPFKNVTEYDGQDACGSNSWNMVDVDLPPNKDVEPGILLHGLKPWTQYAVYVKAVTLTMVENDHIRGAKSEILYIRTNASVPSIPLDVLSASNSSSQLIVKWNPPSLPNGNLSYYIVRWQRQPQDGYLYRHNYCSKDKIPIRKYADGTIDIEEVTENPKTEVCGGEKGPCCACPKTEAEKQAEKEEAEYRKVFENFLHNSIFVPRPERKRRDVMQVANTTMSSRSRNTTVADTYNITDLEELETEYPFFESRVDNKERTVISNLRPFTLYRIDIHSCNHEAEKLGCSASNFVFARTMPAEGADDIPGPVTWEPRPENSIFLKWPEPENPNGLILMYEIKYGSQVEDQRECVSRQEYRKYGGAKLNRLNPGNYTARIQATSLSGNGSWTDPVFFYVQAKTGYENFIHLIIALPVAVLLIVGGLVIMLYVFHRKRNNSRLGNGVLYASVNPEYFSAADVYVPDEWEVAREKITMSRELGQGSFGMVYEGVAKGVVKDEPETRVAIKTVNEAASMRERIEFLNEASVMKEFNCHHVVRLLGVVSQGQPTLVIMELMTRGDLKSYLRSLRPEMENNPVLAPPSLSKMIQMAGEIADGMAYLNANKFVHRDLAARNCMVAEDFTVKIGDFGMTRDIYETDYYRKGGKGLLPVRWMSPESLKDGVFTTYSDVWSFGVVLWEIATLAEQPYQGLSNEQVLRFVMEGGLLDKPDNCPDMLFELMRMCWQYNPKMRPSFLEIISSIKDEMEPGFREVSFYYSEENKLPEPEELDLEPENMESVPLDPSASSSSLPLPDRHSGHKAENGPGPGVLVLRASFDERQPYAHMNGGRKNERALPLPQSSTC
In words: flow cytometry and confocal microscopy, CHO transfectants.

For assay [8], the target named is T3, human IGF-1R expressed on cells. Briefly: cell-based or functional assay.
Assay [9] has as its target T5, human IGF-1R(1-903)-Fc. In words: ELISA, plate coated with soluble IGF-1 receptor Fc fusion protein, detection with anti-human kappa-HRP. Here is the method: The plate was washed with phosphate-buffered saline (PBS, Irvine Scientific, Cat#9240), pH 7.4 plus 0.025% Tween 20 in the Skan Washer 300 (Skatron Instruments), blocked with buffer containing 1% nonfat milk, 0.05% Tween 20 in PBS, pH 7.4, and then incubated at room temperature for 1 hour. After incubation plate was washed with PBS plus 0.025% Tween 20 in the Skan Washer 300. […] Following a one hour incubation at room temperature, plate was washed with PBS plus 0.025% Tween 20 in the Skan Washer 300. […] Plate incubated for 1 hour at room temperature was washed with PBS plus 0.025% Tween 20 in the Skan Washer 300. […] The absorbance was measured at 450 nm, background 540 nm for TMB using the Molecular Devices plate reader. Data was analyzed using the SOFTMAX PRO software package version 4.3 LS (Molecular Devices Corp.).

Assay [10] concerns the target T5, human IGF-1R(1-903)-Fc. Briefly: competition ELISA: biotinylated hIGF-1R-Fc on streptavidin plate, 320 nM human IGF-2 His, detection with anti-His-HRP; blocked ligand human IGF-2 His.
The target in assay [11] is T5, human IGF-1R(1-903)-Fc. In words: competition ELISA: biotinylated hIGF-1R-Fc on streptavidin plate, 320 nM human IGF-1 His, detection with anti-His-HRP; blocked ligand human IGF-1 His. The protocol:
hIGF-1R-Fc was biotinylated using EZ-Link Sulfo-NHS-LC-Biotin according to the protocol provided by the manufacturer (Pierce Cat. No. 21335). Biotinylated human IGF-1R-Fc at 5 μg/ml was added to the wells of SigmaScreen streptavidin-coated 96-well plates (Sigma, Cat. No. M5432-5EA; Sigma-Aldrich Corp. (St. Louis, Mo., USA)) at 100 μL/well and incubated overnight at 2-8° C. The plates were then washed four times with 200 μL/well PBST. […] The dilutions were added to the plates in duplicate at 100 μL/well and the plates were incubated at RT for 1 hour. The plates were then washed four times with 200 μL/well PBST. An HRP-conjugated anti-Histag antibody (Penta-His HRP Conjugate, QIAGEN, Cat. No. 1014992) was diluted 1:1000 in PBST and added to plates at 100 μL/well, and the plates were incubated at RT for one hour. The plates were then washed four times with 200 μL/well PBST. SureBlue Reserve TMB Microwell Peroxidase Substrate (KPL, Cat. No. 53-00-01) was added to plates at 100 μL/well followed by 1% phosphoric acid at 100 μL/well once the desired reaction was observed. The absorbance of each well was determined at 450 nm, and the results were normalized and plotted against the log of antibody concentration.

Assay [12] deals with T2, human IGF-1R(1-902)-His10. Briefly: SPR, antibody over captured IGF-1R-10His. Here is the method: All surface plasmon resonance (SPR) experiments were performed on a Biacore 3000 set to 25° C. using HBS-EP (Biacore, Cat. No. BR-1001-88) as the running buffer. A biotin-labeled anti-HisTag antibody (biotin-PENTA-His, Qiagen Cat. No. 34440) was immobilized to saturation on a Biacore SA chip (Cat. No. BR-1000-32) surface by injection at 500 nM in HBS-EP buffer. […] Subsequent to IGF-1R injections, flow rates were increased to 20 μL/min. A second, 130 μL injection of anti-IGF-1R antibody or Fab was performed to investigate interactions with the receptor. Each antibody and Fab was serially diluted from 64 nM to 0.5 nM to obtain concentration dependent kinetic binding curves. Each injection series was regenerated using 3×10 μL injections of 10 mM Acetate, pH 4.0, at 20 μL/min. Each curve was double referenced using (1) data obtained from a streptavidin surface devoid of IGF-1R and (2) data from a primary injection of IGF-1R followed by a secondary injection of HBS-EP buffer. The concentration series for each antibody and Fab was fit to the 1:1 binding model provided within the BiaEvaluation software of the manufacturer.
The rates at which the antibodies accumulate on the IGF-1R coated surface when applied at various concentrations as well as the rates at which they dissociated during applications of pure buffer were investigated by fitting the data to a 1:1 binding model. Approximate kinetic rate constants and equilibrium dissociation constant were calculated (Table 14).
Background: In SPR one partner is held on a chip, and binding of the other changes the refractive index at the surface.

T4 sequence (Q60751 31-1373): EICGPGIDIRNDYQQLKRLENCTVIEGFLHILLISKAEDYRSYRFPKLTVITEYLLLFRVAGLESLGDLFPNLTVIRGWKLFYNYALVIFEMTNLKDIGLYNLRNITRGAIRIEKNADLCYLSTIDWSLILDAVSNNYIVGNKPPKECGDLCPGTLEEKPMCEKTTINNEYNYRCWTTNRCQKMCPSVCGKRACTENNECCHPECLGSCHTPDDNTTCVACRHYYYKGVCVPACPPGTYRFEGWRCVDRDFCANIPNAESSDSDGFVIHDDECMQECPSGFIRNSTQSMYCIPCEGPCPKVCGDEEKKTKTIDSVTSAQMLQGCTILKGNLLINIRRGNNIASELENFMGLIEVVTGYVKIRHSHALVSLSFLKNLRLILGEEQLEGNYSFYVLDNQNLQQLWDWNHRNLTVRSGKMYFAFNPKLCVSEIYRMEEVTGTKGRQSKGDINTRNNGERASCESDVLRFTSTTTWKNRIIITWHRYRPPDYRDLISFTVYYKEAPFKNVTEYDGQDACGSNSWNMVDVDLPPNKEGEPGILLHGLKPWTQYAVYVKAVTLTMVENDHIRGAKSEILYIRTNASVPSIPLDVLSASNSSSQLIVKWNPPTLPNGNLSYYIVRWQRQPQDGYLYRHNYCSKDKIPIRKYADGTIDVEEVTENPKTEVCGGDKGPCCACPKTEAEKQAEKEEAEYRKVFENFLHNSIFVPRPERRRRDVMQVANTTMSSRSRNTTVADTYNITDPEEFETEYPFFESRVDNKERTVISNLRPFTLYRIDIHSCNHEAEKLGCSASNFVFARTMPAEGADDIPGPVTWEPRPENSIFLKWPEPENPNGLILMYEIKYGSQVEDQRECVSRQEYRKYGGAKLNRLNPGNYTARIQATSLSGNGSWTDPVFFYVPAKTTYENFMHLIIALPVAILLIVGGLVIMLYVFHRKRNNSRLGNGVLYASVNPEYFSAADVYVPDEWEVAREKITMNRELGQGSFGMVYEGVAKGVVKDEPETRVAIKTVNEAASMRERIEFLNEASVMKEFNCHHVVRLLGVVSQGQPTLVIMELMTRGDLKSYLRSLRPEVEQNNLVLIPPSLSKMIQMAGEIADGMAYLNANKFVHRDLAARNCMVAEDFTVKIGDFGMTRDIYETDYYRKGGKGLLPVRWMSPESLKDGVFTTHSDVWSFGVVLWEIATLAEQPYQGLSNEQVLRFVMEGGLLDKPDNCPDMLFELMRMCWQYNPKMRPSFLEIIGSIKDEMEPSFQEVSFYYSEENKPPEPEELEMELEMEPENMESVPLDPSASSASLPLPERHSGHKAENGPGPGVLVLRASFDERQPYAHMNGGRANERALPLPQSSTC

B1: M12-E01 Fab (Fab, V domains shown)
VH: EVQLLESGGGLVQPGGSLRLSCAASGFTFSPYSMLWVRQAPGKGLEWVSSIGSSGGSTRYADSVKGRFTISRDNSKNTLYLQMNSLRAEDTAMYYCARVRGILHYDILIGRNLYYYYMDVWGKGTTVTVSS
VL: QYELTQPPSVSEAPRQRVTISCSGSSSNIGNNAINWYQQLPGKPPKLLIYYDDLLPSGVSDRFSGSKSGTSGSLAISGLQSEDEADYYCAAWDDNLNGVIFGGGTKLTVL
Consider B1, for which the binding result with human INSR(28-956)-His10 [1] is listed as “no binding (tested: 2 µM-0.2 nM)”.

B2: M14-B01 Fab (Fab, V domains shown)
VH: EVQLLESGGGLVQPGGSLRLSCAASGFTFSNYHMAWVRQAPGKGLEWVSVISPTGGRTTYADSVKGRFTISRDNSKNTLYLQMNSLRAEDTATYYCARAGYSYGYGYFDYWGQGTLVTVSS
VL: DIQMTQFPATLSVSPGERATLSCRASQSVMRNLAWYQQKPGQPPRLLIYGASKRATGIPARFSGSGSGTAFTLTISNLEPEDFAVYYCHQRSTWPLGTFGPGTKLEAK
notes: Human phage Fab, kappa
A word on the EC50 (read off the curve): it is the midpoint of the concentration-response curve. Low readings indicate greater potency, high ones weaker potency. What is called EC50 is the concentration giving half of the maximal effect. The low end stands for higher potency in that assay, the high end for lower potency in that assay. In the case of B2, the “EC50 (read off the curve)” value in assay [2] was around 6 nM. In addition, the binding result with human INSR(28-956)-His10 [3] is “no binding (tested: about 20000 nM)”. The same molecule came in with an EC50 in [4] of 29.4 nM.

B3: M14-C03.G4.P.agly (antibody, human IgG4 S228P, kappa, V domains shown)
VH: EVQLLESGGGLVQPGGSLRLSCAASGFTFSKYMMSWVRQAPGKGLEWVSYISPSGGLTWYADSVKGRFTISRDNSKNTLYLQMNSLRAEDTAVYYCARDGARGYGMDVWGQGTTVTVSS
VL: DIQMTQSPATLSLSPGERATLSCRASQSVSSYLAWYQQKPGQAPRLLIYDASNRATGIPARFSGSGSGTDFTLTISSLEPEDFAVYYCQQRSNWPPEVTFGPGTKVDIKR
notes: Full-length human aglycosylated IgG4.P, kappa; Places that say only 'M14-C03 antibody' were assigned to this version; also called M14-C03_Ab
In general, Kd refers to a measure of binding affinity in units of concentration. Read a low Kd as tighter binding. One may read the koff as the rate constant with which the complex falls apart. High values mean fast dissociation, low ones slow dissociation. A word on the kon: it is the rate constant with which the complex forms. With B3, the binding result in [5] is recorded as “binds”. Moreover, in the assay with human IGF-1R(1-903)-Fc [6], the “percent competition (relative to self-competition)” value lay in the range of 90 to 100%. For the same molecule, in assay [7], the binding result is “binds”. Besides, the “inhibition of IGF-1 and IGF-2 mediated IGF-1R receptor phosphorylation (EC50)” value in assay [8] was below 1 nM. Besides, the “EC50 (read off the curve)” value in the assay with human IGF-1R(1-903)-Fc [9] was around 0.07 nM. The “IC50 (read off the curve)” value with human IGF-1R(1-903)-Fc [10] is around 1 nM. Moreover, the “IC50 (read off the curve)” value with human IGF-1R(1-903)-Fc [11] was around 5 nM. Moreover, in [12], binding was characterised by a dissociation constant (Kd) of 0.36 nM, the koff amounted to 0.0002 s⁻¹ and the kon came to 570000 M⁻¹ s⁻¹.
